{
  "source": "the DeepSol protein solubility set",
  "data": [
    {"experiment": "soluble on expression in E. coli; label from the status in PepcDB or PDB records", "values": [
      {"sequence": "MSAPLFSVVVPAYNQHKFIDSCLTSLQRQTLTDFEVFVVDDCSTDDTGEQIAALIKGDDRFHVITHAHNRGVSAARNSGMAAAKGKYLCFVDGDDWVEPDFLATFLAAYRSAPDTQLVVCGHYGYLAVPSPAKTYNQKDLIANINFGTVGGFSWNKAFIRSIITTHHLKFNEDIDFLEDQLFAFRYANYVQSSEYVPDRTYHYRWRFRSNLAHIGIPFFTARRKMMKILKQENKQVLNEDWNNQ", "soluble on expression in E. coli": "not soluble"},
      {"sequence": "MIAIISLPGISMASSKSLQQAIANIKIWHKGEQRAPHKPLLLLYVLAGYLNGHPRLFDYGTEIYEPLHSLLERFGPQRSQYRPDMPFWRLQGDGIWQLHNAERCSTAGSSRQPPVKELNEYHVAGGFDEQHYALVTGNKKLINTLAQQILEAHFTESIQEEIADELGFDLQQTRKQRDPLFRKNVLRAYNYQCAICGFNMRHDDTTVALEAAHIKWKQHGGPCEIPNGLALCAIHHKAFDKGSIGLDENMRVLVSDAVNGGGIVERLFWDFDGKTIALPQVRKNYPYEGFVGER", "soluble on expression in E. coli": "not soluble"},
      {"sequence": "MVLSQKLHEAFKGTVERITGPRTISAFKEKGVLSVSEFVLAGDNLVSKCPTWSWESGDASKRKPYLPSDKQFLITRNVPCLRRAASVAEDYEAAGGEVLVDDEDNDGWLATHGKPKGKEEDNLPSMDALDINEKNTIQSIPTYFGGEEDDDIPDMEEFDEADNVVENDPATLQSTYLVAHEPDDDNILRTRTYDLSITYDKYYQTPRVWLTGYDESRMLLQPELVMEDVSQDHARKTVTIEDHPHLPGKHASVHPCRHGAVMKKIIDVLMSRGVEPEVDKYLFLFLKFMASVIPTIEYDYTMDFDLGSSST", "soluble on expression in E. coli": "not soluble"},
      {"sequence": "MRQTNNKESTMKPTADILASIIEEVRPLTSKGIVADYIPALAKVPSDKLGIAVFTNQGEVITAGDAQEGFSIQSISKVLSLTLAMGLYQPDELWSRVGKEPSGQAFNSLIQLEMEQGIPRNPFINAGAIVVCDMLQSRLSAPRQRLLEFVRQLSGEPQIAYDKVVAASEMMHSDRNAAIAYLMRSFGNFHNEVIPVLHNYFHACALKMSCVELAKTFSYLANKGVSVVTGETVITPTQSKQTNALLATCGLYDGAGEFAYRVGMPGKSGVGGGIIAVVPGEMTIAVWSPALDQSGNSLAGTRALELLAQRIGRSIFLEHHHHHH", "soluble on expression in E. coli": "soluble"},
      {"sequence": "MRRRENMDVNKAIRTAVDTGKVILGSKRTIKFVKHGEGKLVVLAGNIPKDLEEDVKYYAKLSNIPVYQHKITSLELGAVCGKPFPVAALLVLDEGLSNIMELVEKKEGGE", "soluble on expression in E. coli": "soluble"},
      {"sequence": "MERAGICHSDGFDLAYRIEGEGAPILVIGSAAYYPRLFSSDIKQKYQWVFVDHRGFAKPKRELRAEDSRLDAVLADIERMRTFLQLEDVTTLGHSGHAFMALEYARTYPKQVRKVALFNTAPDNSEERQRKSESFFMETASLERKKRFEKDIENLPQDIDKDPERRFVHMCIRAEAKSFYQERPHAAALWDGVFTNMPIIDELWGNTFARIDLLQRLADVRMPVYIGLGRYDYLVAPVSLWDAVDGLYPHVDKVIFEKSGHQPMLEEPEAFDQSFRKWLDQ", "soluble on expression in E. coli": "not soluble"},
      {"sequence": "MSDVDADEARKMAERERKKEEVRKRLEEASRMKKAKKGFLTPERKKKLRKLLMMKAAEDLKQQQMLKEQERQRILQERIIPLPDLDNEDDLEAVYDEIRERLIDLESENYDVSYIVRQKDFEINELTIAVNDLRGKFVKPTLKKVSKTEGKFDKLKKKEATKVDFRAQLKVVDKNEFALDEEDTEKKEKAAWAK", "soluble on expression in E. coli": "not soluble"},
      {"sequence": "MASLLTETMPFRMTMEGTVNGHHFKCTGKGEGNPFEGTQDMKIEVIEGGPLPFAFDILSTSC", "soluble on expression in E. coli": "soluble"},
      {"sequence": "QLHELANTFGQDLQRRYGEKVHKLTLHGGFSCPNRDGTIGKGGCTFCNVASFADEQEQFKSIHDQLTDRAGEVQRAKKYLAYFQAYTSTFAEVQVLKNMYEEALKAANIVGLCVGTRPDCVPDAVLDLLKGYVDDGYEVWLELGLQTANDKTLKRINRGHDFACYDAITRKARSLGIKVCTHLIIGLPGDTRDDNRQTLDKVLATGTDGIKLHPLHIVEGSTLAKAWRAGKLDAPEMDEYVDIACELIRLTPPEVVYHRVSATARQPTLLSPLWCEPRWLGLTNVGMALNNSGPQGS", "soluble on expression in E. coli": "not soluble"},
      {"sequence": "MEEAKNMALLFFMDHLMQKNGRRTIHDLSCQFGARGFSEEMRNAVGTTQEGLTEFLQGHPSLFTVEGDQVILNGHNDLNAKNNPLLQSGIRSRNYEKEAVDFFVTKLTKFGPELQIKSLLGHRSQAAPEVRLVSGRHLKEFCEFLQSQVDYFVVEGDRVRLKNMPEPDENAIEMDDEGRPLAGVKAKQAAVEYLKSVLEQNEDQPIPLDQFYQNFCQRFSHTIRQDVATNPKELLQFLKLNRGLFFIRSNKVSLVKNRLNEDGSENGSDEGEETNNNGMFPLDQSALTRIHFVKALKPAQDLISRLWQDINNMEKKVVGLDLKTVTVGVDGEIFLSLGVIATTSQIGIFDLASSDVIILESGFKGILESEKVVKVIHDARRVASLLAHKYAVHMRNVFDTQVAHSLLQHEKFNKSLNEMRPISFINLQRVYYPQSIMLSDVTPRKMSMCPNWGVRPITEEFQLTIVEEAHCLLSALYQSLSNLIPVHLRGVFEDKCIEVNHPEVLLASPNRPPPQPFISSPYRASTRRDVRNGGSIMQSFSPAPYAAAPRPQMSDACTQTFSTGDIEVLNVFYE", "soluble on expression in E. coli": "not soluble"},
      {"sequence": "MAVKISGVLKDGAGKPVVNCAIELRARRTSPTVVAHVVATCVTDNNGAYVIEAEPGYYEVALHCNGWQPTRVGDIDVAPTDAPGTLNAFLNAPKDGDLRPEVMKRFEEMVAQAQQSAGAAAGNAQQTAQDVAAAATARDDAQRFAEKARQDATVTAEDRKATAEDVTSTGANAAAAGQSAQDAAGYARAAEQAKNDIDAALTGTLKMANHLSEIAAAGEKAQQKSRDNLGLKSAATMEAQSDIYDRTKGRLAIPGAFGFGCAFLPEDVIRFDTKSDFLAWVRNALPGEYSVAGPYGIIIPDTRFEGVLSIRWTDARPETTEPRYRAKSLTFYGINGPIYHTRYRYWPISRLTG", "soluble on expression in E. coli": "not soluble"},
      {"sequence": "MGSDKIHHHHHHMVVNESMYQLGSVRSAIRELFEYGKKRAAIVGKENVYDFSIGNPSIPAPQIVNDTIKELVTDYDSVALHGYTSAQGDVETRAAIAEFLNNTHGTHFNADNLYMTMGAAASLSICFRALTSDAYDEFITIAPYFPEYKVFVNAAGARLVEVPADTEHFQIDFDALEERINAHTRGVIINSPNNPSGTVYSEETIKKLSDLLEKKSKEIGRPIFIIADEPYREIVYDGIKVPFVTKYYDNTLVCYSYSKSLSLPGERIGYVLVPDEVYDKAELYAAVCGAGRALGYVCAPSLFQKMIVKCQGATGDINAYKENRDLLYEGLTRIGYHCFKPDGAFYMFVKALEDDSNAFCEKAKEEDVLIVAADGFGCPGWVRISYCVDREMIKHSMPAFEKIYKKYNK", "soluble on expression in E. coli": "not soluble"},
      {"sequence": "MSLLLIGNGRLITRDAQNHFFENGCVAIDGQVVKQVGTTEELKQAYPEATFIDAKGGVIMPGFINMHNHIYSTFARGLSLTNYHPKNFMDILVDQWWRIDRALTLEDTYQSGKVAYLDSIRNGVTTVFDHHASYGEITGSLTQLSNAADELGIRTCLCYEVSDRDGEQKMREAVQENAAFIKASSLRNDDMQKAMMGMHAAFTLSDASLELCAANTPDGIGYHIHIAEDLADVHDSLKKYGKPIVNRLFDLGILGKQTMAGHCIHIGPHEMELLRDTDTMVVTNPESNMGNAVGCPPAMRMFNEYGILMGLGTDGYTNDVTESYKVGNVIHKHHLADPNAAWAEIPTMLFDNNPQMANRYFKTKLGVLEPNAAADVIIVDYHGPTPMTKENYNMHILFGMNGGMVTDTVINGEIRMRNREVQGIDEEKVWHDAQTQAQSFWKRVNQEGHHHHHH", "soluble on expression in E. coli": "soluble"},
      {"sequence": "MAHHHHHHMKALVFLEVEESATGSNTARSTATQMHALFAGLVEMSMHVYLEKDASLAAASGAAEARVLLLSTVVKDLLSVREQSRSSPAQYVRYVQRMLIARTPVVPYITTQLLQDCQSQTALLTTSHGPTVLGAKRGDPAECFSVVHPRRYR", "soluble on expression in E. coli": "not soluble"},
      {"sequence": "MERHVPEPTHTLEGWHVLHDFRLLDFARWFSAPLEAREDAWEELKGLVREWRELEEAGQGSYGIYQVVGHKADLLFLNLRPGLDPLLEAEARLSRSAFARYLGRSYSFYSVVELGSQEKPLDPESPYVKPRLTPRVPKSGYVCFYPMNKRRQGQDNWYMLPAKERASLMKAHGETGRKYQGKVMQVISGAQGLDDWEWGVDLFSEDPVQFKKIVYEMRFDEVSARYGEFGPFFVGKYLDEEALRAFLGL", "soluble on expression in E. coli": "soluble"},
      {"sequence": "MDILSDIANAVLPQDVVSKVESKRAVAVLRGTAVFGTVWLTQKAEGEETEFEGEIKGLSPGLHGFHIHQYGDSTDGCTSAGPHFNPCKMNHGGRDSVVRHVGDLGNVEAGADGVAKIKFSDKVVSLFGANTVIGRSMVVHVDRDDLGQGIDDKAEESLKTGNAGARAACGVIALAAPA", "soluble on expression in E. coli": "not soluble"},
      {"sequence": "MSDSSPTNLPSRAFATQKLAKLIDRWTGNANQYDTPISGLRFSRWTTPTPPTSYTHNPSICLIAQGRKRVLLGEESFIYDANHFLISSVDLPIIANIIEASEEQPYLGLIMELDLTEISQLIVDSELAFTQSKEAQKGIAVGELSESLLDAFVRLAELLDEGQNIKILAPIIKREIFYRLLMSEQGTRLHQIATAGSHSHQIAKAIDWLKNNFVKPLSVGDLASYTGMSKSSFYTHFRSMTSMTPLQFQKKLRLSEARRLMLTENLDAMAATFKVGYESPSQFSREYSRLFGAPPSKDIKSLRENLG", "soluble on expression in E. coli": "not soluble"},
      {"sequence": "GMVTTRKPLRAAIIGLGRLGERHARHLVNKIQGVKLVAACALDSNQLEWAKNELGVETTYTNYKDMIDTENIDAIFIVAPTPFHPEMTIYAMNAGLNVFCEKPLGLDFNEVDEMAKVIKSHPNQIFQSGFMRRYDDSYRYAKKIVDNGDIGKIIYMRGYGIDPISGMESFTKFATEADSGGIFVDMNIHDIDLIRWFTGQDPVQAYGLTSNIAAPQLADIGEFETGVAQLKMSDGVIATLIGGRHAAHGNQVELEVMGSNGWVRIGEHPDLNRVTVFNDQGVVRPSLQSFGERFDTAFTDEVQDFVNNVIVGKQPEVTVDDGIKALKIAKACQQSANIGKLVDIQL", "soluble on expression in E. coli": "soluble"},
      {"sequence": "MPQSESNIALLIDADNAPASKIEAIVSEIAKYGVANIRKAYGNWKSPNLKAWEECLHEYAIRPVQQFDYTKGKNATDAAMIIDAMDLLYTQRLDAFAIVSSDCDFTPLVMRILTNGLKVYGFGEKKTPLPFVYACSTFLYLESIDQIENSEGATQSSTSVKKTGKELKQDAKLISLLRSAISSTIDDDGWSSLAEIGGHIKNQASFDSRNYGYAKLSSLFEAIDLFEIERKNRAIYVRNRQKKSATSKSLEHHHHHH", "soluble on expression in E. coli": "soluble"},
      {"sequence": "MLNRFKSWRERGWVPIDAAAYELAWQRLGGSVATHPLVVARLSEFSGIPVRYLAWEQGGEVKAAIATWGRSLALSKDELKRHGKKGLFDLGNAELILPVAEGVQVPVRHRARYVSALNEGRISTLKSQTESLAMARTPEELSKKFRYNQRRELRLLEEAGGTVRPVSEFSSAELASMYCDLFQRRWGFEATGARDKAQVIELLRDLLIGSVVFLNDAPIAIQLVYRVEAPQWVSIEYVNGGVDPETRDFSPGSVLSFVNTQSAWEDARALGKALRFSFGRADREYKDRWCNPVPVFQL", "soluble on expression in E. coli": "not soluble"},
      {"sequence": "MIKKITISDLIRMGDEKEREWFMFHAEVERIFNDTEIVGIKYQATITYVIGELDEDVLNTVFESNWNKTAEVLKKHEIEVEDIKIDKNEKKVEIKLKTSGIVYREGLFEFEDIKELLKDVLARKIEEAWISVLQEHGYILEHHHHHH", "soluble on expression in E. coli": "soluble"}
    ]}
  ]
}
